Source: patent US20180037904A1

Columns and labels:
[1] = molecular target: Rubisco (Ribulose-1,5-bis-phosphate carboxylase/oxygenase) purified from Oryza sativa leaves (Oryza sativa) (UniProt P0C512); assay: cell-based or functional assay
[2] = molecular target: Rubisco from wheat (wheat) (UniProt P11383); assay: cell-based or functional assay
[3] = molecular target: Rubisco (Ribulose-1,5-bis-phosphate carboxylase/oxygenase) purified from Oryza sativa leaves, P0C512

leaf-extracted RCA from Oryza sativa (partially purified, alpha and beta isoforms) (from UniProt P93431 49-466; P93431 49-428) (enzyme)
reduction in fraction of Rubisco activated at comparable temperatures [1]: 80%

beta isoform of RCA extracted from wheat leaves (0.2 M KCl anion-exchange fraction) (enzyme)
activation of wheat Rubisco by leaf-extracted beta isoform at less than 34° C., relative to the rice RCA isoforms [2]: > 2 fold

B1: recombinant Oryza australiensis Rubisco activase (RCA), beta (short) isoform (protein)
chain: MAKELDEDKQTDQDKWKGLAYDISDDQQDITRGKGLVDSLFQAPMGDGTHEAVLSSYEYLSQGLKMLDNTMGGFYIAPAFMDKLVVHISKNFMALPNIKVPLILGIWGGKGQGKSFQCELVFSKMGINPIMMSAGELESGNAGEPAKLIRQRYREAADIIKKGKMCCLFINDLDAGAGRMGGTTQYTVNNQMVNATLMNIADNPTNVQLPGMYNKEDNPRVPIIVTGNDFSTLYAPLIRDGRMEKFYWAPTRDDRVGVCKGIFRTDNVPDEDIVKIVDSFPGQSIDFFGALRARVYDDEVRKWVSDTGVENIGKKLVNSREGPPEFEQPKMTIDKLMEYGHMLVREQENVKRVQLADKYLSEAALGDANSDAMKTGSFYGAAPSS
concentration-dependent specific activity of ATP hydrolysis: specific activity of ATP hydrolysis falls at low RCA concentrations | temperature stability of ATP hydrolysis: both being heat stable, not losing activity until 40 °C | Rubisco activation activity of recombinant RCA at 30 and 36° C. [3]: the β isoform of RCAOs has higher activity than RCAOa

B2: recombinant Oryza sativa Rubisco activase (RCA), alpha (long) isoform (protein)
chain: MAKELDEGKQTDQDRWKGLAYDISDDQQDITRGKGFVDSLFQAPTGDGTHEAVLSSYEYLSQGLRTYDFDNTMGGFYIAPAFMDKLVVHISKNFMTLPNIKVPLILGIWGGKGQGKSFQCELVFAKMGINPIMMSAGELESGNAGEPAKLIRQRYREAADIIKKGKMCCLFINDLDAGAGRMGGTTQYTVNNQMVNATLMNIADNPTNVQLPGMYNKEDNPRVPIIVTGNDFSTLYAPLIRDGRMEKFYWAPTRDDRVGVCKGIFRTDNVPDEDIVKIVDSFPGQSIDFFGALRARVYDDEVRKWVSDTGVENIGKRLVNSREGPPEFEQPKMTIEKLMEYGYMLVKEQENVKRVQLAEQYLSEAALGDANSDAMKTGSFYGQGAQQAGNLPVPEGCTDPVAKNFDPTARSDDGSCLYTF
concentration-dependent specific activity of ATP hydrolysis: specific activity of ATP hydrolysis falls at low RCA concentrations | temperature stability of ATP hydrolysis: both being heat stable, not losing activity until 40 °C | Rubisco activation activity of recombinant RCA at 30 and 36° C. [3]: there is little difference in activity of the α isoform between the species

B3: recombinant Oryza australiensis Rubisco activase (RCA), alpha (long) isoform (protein)
chain: MAKELDEDKQTDQDKWKGLAYDISDDQQDITRGKGLVDSLFQAPMGDGTHEAVLSSYEYLSQGLKMLDNTMGGFYIAPAFMDKLVVHISKNFMALPNIKVPLILGIWGGKGQGKSFQCELVFSKMGINPIMMSAGELESGNAGEPAKLIRQRYREAADIIKKGKMCCLFINDLDAGAGRMGGTTQYTVNNQMVNATLMNIADNPTNVQLPGMYNKEDNPRVPIIVTGNDFSTLYAPLIRDGRMEKFYWAPTRDDRVGVCKGIFRTDNVPDEDIVKIVDSFPGQSIDFFGALRARVYDDEVRKWVSDTGVENIGKKLVNSREGPPEFEQPKMTIDKLMEYGHMLVREQENVKRVQLADKYLSEAALGDANSDAMKTGSFYGQGAQQGGNLPVPEGCTDPVAKNFDPTARSDDGSCLYTF
concentration-dependent specific activity of ATP hydrolysis: specific activity of ATP hydrolysis falls at low RCA concentrations | temperature stability of ATP hydrolysis: both being heat stable, not losing activity until 40 °C | Rubisco activation activity of recombinant RCA at 30 and 36° C. [3]: there is little difference in activity of the α isoform between the species

B4: leaf-extracted RCA from Oryza sativa (partially purified, alpha and beta isoforms) (protein)
chain 1: KELDEGKQTDQDRWKGLAYDISDDQQDITRGKGFVDSLFQAPTGDGTHEAVLSSYEYLSQGLRTYDFDNTMGGFYIAPAFMDKLVVHISKNFMTLPNIKVPLILGIWGGKGQGKSFQCELVFAKMGINPIMMSAGELESGNAGEPAKLIRQRYREAADIIKKGKMCCLFINDLDAGAGRMGGTTQYTVNNQMVNATLMNIADNPTNVQLPGMYNKEDNPRVPIIVTGNDFSTLYAPLIRDGRMEKFYWAPTRDDRVGVCKGIFRTDNVPDEDIVKIVDSFPGQSIDFFGALRARVYDDEVRKWVSDTGVENIGKRLVNSREGPPEFEQPKMTIEKLMEYGYMLVKEQENVKRVQLAEQYLSEAALGDANSDAMKTGSFYGQGAQQAGNLPVPEGCTDPVAKNFDPTARSDDGSCLYTF
chain 2: KELDEGKQTDQDRWKGLAYDISDDQQDITRGKGFVDSLFQAPTGDGTHEAVLSSYEYLSQGLRTYDFDNTMGGFYIAPAFMDKLVVHISKNFMTLPNIKVPLILGIWGGKGQGKSFQCELVFAKMGINPIMMSAGELESGNAGEPAKLIRQRYREAADIIKKGKMCCLFINDLDAGAGRMGGTTQYTVNNQMVNATLMNIADNPTNVQLPGMYNKEDNPRVPIIVTGNDFSTLYAPLIRDGRMEKFYWAPTRDDRVGVCKGIFRTDNVPDEDIVKIVDSFPGQSIDFFGALRARVYDDEVRKWVSDTGVENIGKRLVNSREGPPEFEQPKMTIEKLMEYGYMLVKEQENVKRVQLAEQYLSEAALGDANSDAMKTGSFYGSAPSS
peak in RCA activation performance (temperature of maximal Rubisco activation) [3]: 29.9±0.5 °C for O. sativa

B5: leaf-extracted RCA from Oryza australiensis (partially purified, alpha and beta isoforms) (protein)
chain 1: KELDEDKQTDQDKWKGLAYDISDDQQDITRGKGLVDSLFQAPMGDGTHEAVLSSYEYLSQGLKMLDNTMGGFYIAPAFMDKLVVHISKNFMALPNIKVPLILGIWGGKGQGKSFQCELVFSKMGINPIMMSAGELESGNAGEPAKLIRQRYREAADIIKKGKMCCLFINDLDAGAGRMGGTTQYTVNNQMVNATLMNIADNPTNVQLPGMYNKEDNPRVPIIVTGNDFSTLYAPLIRDGRMEKFYWAPTRDDRVGVCKGIFRTDNVPDEDIVKIVDSFPGQSIDFFGALRARVYDDEVRKWVSDTGVENIGKKLVNSREGPPEFEQPKMTIDKLMEYGHMLVREQENVKRVQLADKYLSEAALGDANSDAMKTGSFYGQGAQQGGNLPVPEGCTDPVAKNFDPTARSDDGSCLYTF
chain 2: KELDEDKQTDQDKWKGLAYDISDDQQDITRGKGLVDSLFQAPMGDGTHEAVLSSYEYLSQGLKMLDNTMGGFYIAPAFMDKLVVHISKNFMALPNIKVPLILGIWGGKGQGKSFQCELVFSKMGINPIMMSAGELESGNAGEPAKLIRQRYREAADIIKKGKMCCLFINDLDAGAGRMGGTTQYTVNNQMVNATLMNIADNPTNVQLPGMYNKEDNPRVPIIVTGNDFSTLYAPLIRDGRMEKFYWAPTRDDRVGVCKGIFRTDNVPDEDIVKIVDSFPGQSIDFFGALRARVYDDEVRKWVSDTGVENIGKKLVNSREGPPEFEQPKMTIDKLMEYGHMLVREQENVKRVQLADKYLSEAALGDANSDAMKTGSFYGAAPSS
absolute rate of Rubisco activation at 42° C. relative to Os RCA [3]: at 42 °C Oa had an absolute rate of activity four-times that of Os | drop in Rubisco activation activity at 42° C. relative to 30° C., RCA at 0.96 mg·mL^-1 [3]: close to a 50% drop in activity at 42 °C relative to 30 °C | fall in Rubisco activation activity at 42° C. relative to 30° C., RCA at 0.24 and 0.49 mg·mL^-1 [3]: less than a 20% fall at concentrations of 0.24 and 0.49 mg·mL^-1 | peak in RCA activation performance (temperature of maximal Rubisco activation) [3]: 33.0±0.3 °C for O. australiensis

B6: recombinant Oryza sativa Rubisco activase (RCA), beta (short) isoform (protein)
chain: MAKELDEGKQTDQDRWKGLAYDISDDQQDITRGKGFVDSLFQAPTGDGTHEAVLSSYEYLSQGLRTYDFDNTMGGFYIAPAFMDKLVVHISKNFMTLPNIKVPLILGIWGGKGQGKSFQCELVFAKMGINPIMMSAGELESGNAGEPAKLIRQRYREAADIIKKGKMCCLFINDLDAGAGRMGGTTQYTVNNQMVNATLMNIADNPTNVQLPGMYNKEDNPRVPIIVTGNDFSTLYAPLIRDGRMEKFYWAPTRDDRVGVCKGIFRTDNVPDEDIVKIVDSFPGQSIDFFGALRARVYDDEVRKWVSDTGVENIGKRLVNSREGPPEFEQPKMTIEKLMEYGYMLVKEQENVKRVQLAEQYLSEAALGDANSDAMKTGSFYGSAPSS
concentration-dependent specific activity of ATP hydrolysis: specific activity of ATP hydrolysis falls at low RCA concentrations | temperature stability of ATP hydrolysis: both being heat stable, not losing activity until 40 °C | Rubisco activation activity of recombinant RCA at 30 and 36° C. [3]: the β isoform of RCAOs has higher activity than RCAOa
